# Results from patent publication US20130196320A1, “METHOD FOR IMPROVING CLEAVAGE OF DNA BY ENDONUCLEASE SENSITIVE TO METHYLATION” (CELLECTIS, priority 2010, published 2013).
# B1: I-CreI D75N: I-CreI D75N meganuclease variant, SEQ ID NO: 22 (protein)
# chain: MANTKYNKEFLLYLAGFVDGDGSIIAQIKPNQSYKFKHQLSLAFQVTQKTQRRWFLDKLVDEIGVGYVRDRGSVSDYILSEIKPLHNFLTQLQPFLKLKQKQANLVLKIIWRLPSAKESPDKFLEVCTWVDQIAALNDSKTRKTTSETVRAVLDSLSEKKKSSPAAD
# B2: RAG: engineered single chain meganuclease (SEQ ID NO: 61) designed to cleave a sequence in the human RAG1 gene (protein)
# chain: MANTKYNEEFLLYLAGFVDGDGSIIAQINPNQSSKFKHRLRLTFYVTQKTQRRWFLDKLVDEIGVGYVRDSGSVSQYVLSEIKPLHNFLTQLQPFLELKQKQANLVLKIIEQLPSAKESPDKFLEVCTWVDQIAALNDSKTRKTTSETVRAVLDSLSGKKKSSPAAGGSDKYNQALSKYNQALSKYNQALSGGGGSNKKFLLYLAGFVDSDGSIIAQIKPRQSNKFKHQLSLTFAVTQKTQRRWFLDKLVDRIGVGYVYDSGSVSDYRLSEIKPLHNFLTQLQPFLKLKQKQANLVLKIIEQLPSAKESPDKFLEVCTWVDQIAALNDSKTRKTTSETVRAVLDSLSEKKKSSP
# B3: CAPNS1: engineered heterodimer meganuclease (SEQ ID NO: 62+SEQ ID NO: 63) cleaving the 5′ UTR of the human CAPNS1 gene (protein)
# chain 1: MANTKYNKEFLLYLAGFVDSDGSIIAQIKPRQSYKFKHQLRLTFYVTQKTQRRWFLDKLVDEIGVGYVEDSGSVSRYVLSEIKPLHNFLTQLQPFLKLKQKQANLVLKIIEQLPSAKESPDKFLEVCTWVDQVAALNDSKTRKTTSETVRAVLDSLSEKKKSSPAAD
# chain 2: MANTKYNKEFLLYLAGFVDGDGSIVAQIKPNQRAKFKHQLSLTFQVTQKTQRRWLLDKLVDEIGVGYVQDSGSVSNYRLSEIKPLHNFLTQLQPFLKLKQKQANLVLKIIEQLPSAKESPDKFLEVCTWADQIAALNDSKTRKTTSETVRAVLDSLSEKKKPSPAAD
# Experiments:
# [1] = test system: XPC4 target CpG motives in 293H cells; test: DNA methylation of XPC4 target by bisulfite treatment and sequencing, siRNA targeting DNMT1; type: cell-based, human; conditions: for amount of unmethylated C, % of total: one of the two CpG of XPC4 target; for amount of unmethylated C: the other CpG of XPC4 target
# From the text: FIG. 15: Chromatogram. In order to determine the methylation status of the two CpG motives present in the XPC4 target sequence, genomic DNA was extracted, and treated with bisulfite. Bisulfite treatment is based on a chemical reaction of sodium bisulfite with DNA that converts unmethylated cytosines into uracil whereas methylated cytosines remain unchanged. DNA was then amplified by PCR and sequenced. […] For one of the two CpG ([…]; SEQ ID NO: 24) the amount of unmethylated C was estimated to 20 and 30% of total after 1 nM and 5 nM of si_DNMT1, respectively. For the other CpG ([…]; SEQ ID NO: 24) the amount of unmethylated C was estimated to 25 and 50% after 1 nM and 5 nM of si_DNMT1, respectively.
# (§1) The human 293H cells (ATCC) were plated at a density of 1.2×10^6 cells per 10 cm dish in complete medium (DMEM supplemented with 2 mM L-glutamine, penicillin (100 IU/ml), streptomycin (100 μg/ml), amphotericin B (Fongizone: 0.25 μg/ml, Invitrogen-Life Science) and 10% FBS). The next day, cells were transfected with 5 μg of empty vector pCLS003 (SEQ ID NO: 65) and 1 nM or 5 nM of si_DNMT1 composed of mixture of two siRNA DNMT1—1 ([…], SEQ ID NO: 66) and DNMT1—2 ([…], SEQ ID NO: 67) or with si_AS, a siRNA control with no known human target, using Lipofectamine 2000 as transfection reagent (Invitrogen) according to the manufacturer's protocol. The day after, cells were re-platted at the density of 1.2×10^6 cells per 10 cm. 24 hours after, cells were transfected again with 1 nM or 5 nM of siDNMT1 or si_AS in presence of 3 μg of meganuclease expressing vector (pCLS2510; SEQ ID NO: 68) and 2 μg of empty vector or 5 μg of empty vector (SEQ ID NO: 65), with Lipofectamine 2000 transfection reagent (Invitrogen) according to the manufacturer's protocol.
# To assess the level DNA methylation, DNA sequencing was performed after a bisulfite treatment according to the instructions of the manufacturer (EZ DNA methylation-Gold Kit, Zymo Research). After genomic DNA extraction, the XPC4 target locus was amplified by PCR with specific primers
# [2] = test system: XPC4 target locus in 293H cells; test: Meganuclease-induced mutagenesis at XPC4 target locus by deep sequencing, siRNA targeting DNMT1; type: cell-based, human; conditions: for mutagenesis, PCR fragments carrying a mutation: Empty vector
# Description: as §1
# After genomic DNA extraction, the XPC4 target locus was amplified with specific primers flanked by specific adaptator needed for HTS sequencing on the 454 sequencing system (454 Life Sciences)
# 5,000 to 10,000 sequences per sample were analyzed.
# C1221 DNA target = test: In vitro cleavage assay with C1221 duplex, increasing meganuclease concentration; type: biochemical
# Description: FIG. 2: In vitro cleavage of unmethylated or methylated C1221 by I-CreI. A constant amount of C1221 (50 nM) was incubated with increasing concentrations of I-CreI (0 to 2 μM) in reaction buffer (10 mM Tris-HCl, 150 mM NaCl, 10 mM MgCl2, pH8) for an hour at 37° C. The reaction was stopped and the remaining uncleaved C1221 was quantify and plotted as function of I-CreI concentration.
# FIG. 3: In vitro cleavage of unmethylated or methylated C1221 by I-CreI D75N. 50 nM C1221 containing either 0, 1, 2 or 3 methylated CG was incubated with increasing concentrations of I-CreI D75N (0 to 2 μM) in reaction buffer (10 mM Tris-HCl, 150 mM NaCl, 10 mM MgCl2, pH8) for an hour at 37° C. The reaction was stopped and cleaved and uncleaved C1221 (top and bottom panel respectively) were quantify and plotted as function of I-CreI D75N concentration.
# To investigate the influence of C1221 methylation on the nuclease activity of I-CreI, an in vitro cleavage assay with either unmethylated or fully methylated C1221 duplex (SEQ ID NOs: 4-5 and 12-13 respectively) was performed. A constant amount of C1221 duplex (50 nM) was incubated with increasing concentration of I-CreI (0 to 2 μM) in a total volume of 25 μL of reaction buffer (10 mM Tris-HCl, 150 mM NaCl, 10 mM MgCl2, pH8). Cleavage reaction was allowed to proceed 1 hour at 37° C. and then stopped by addition of 5 μL of 6× stop buffer (45% glycerol, 95 mM EDTA, 1.5% (w/v) SDS, 1.5 mg/mL proteinase K and 0.048% (w/v) bromophenol blue) followed by an hour incubation at 37° C. Cleaved and uncleaved DNA products were separated by PAGE using a TGX Any kD precast gel (Bio-Rad), stained with SYBR Green and then quantified using Quantity One software (Bio-Rad).
# To investigate the influence of C1221 methylation on the nuclease activity of I-CreI D75N, in vitro cleavage assay with C1221 duplex containing either 0, 1, 2 or 3 methylated CG (SEQ ID NOs: 4-5, 6-7, 8-9, 10-11 respectively) was performed, according to the procedure described for I-CreI wild type.
# [3] = test system: RAG target in human RAG1 gene, 293H cells; test: Meganuclease-induced mutagenesis assay at RAG recognition site; type: cell-based; conditions: RAG meganuclease
# Description: (§2) The human 293H cells (ATCC) were plated at a density of 1.2×10^6 cells per 10 cm dish in complete medium (DMEM supplemented with 2 mM L-glutamine, penicillin (100 IU/ml), streptomycin (100 μg/ml), amphotericin B (Fongizone: 0.25 μg/ml, Invitrogen-Life Science) and 10% FBS). The cells were pre-treated with 5-aza-deoxycytidine at 0.2 μM or 1 μM, 48 hours before transfection and the treatment was maintained 48 hours post-transfection. The medium was changed every day. The cells were transfected with 3 μg of DNA plasmids encoding meganuclease for RAG or 2.5 μg of each monomer CAPNS1 using Lipofectamine 2000 transfection reagent (Invitrogen) according to the manufacturer's protocol.
# (§3) The efficiency of the meganuclease to promote mutagenesis at its endogenous recognition site was evaluated by sequencing the DNA surrounding the meganuclease cleavage site. Two days post-transfection, genomic DNA was extracted. 200 ng of genomic DNA were used to amplify (PCR amplification) the endogenous locus surrounding the meganuclease cleavage site. PCR amplification is performed to obtain a fragment flanked by specific adaptor sequences [adaptor A: 5′-[…]-NNNN-3′(SEQ ID NO: 46) and adaptor B, 5′-[…]-3′ (SEQ ID NO: 47)] provided by the company offering sequencing service (GATC Biotech AG, Germany) on the 454 sequencing system (454 Life Sciences). The primers sequences used for PCR amplification were:
# RAG_F1: 5′-[…]-NNNN-[…] (SEQ ID NO: 57) and
# (§4) RAG_R1: 5′-[…]-[…]-3′ (SEQ ID NO: 58) and CAPNS1_J3: 5′-[…]-NNNN-[…] (SEQ ID NO: 59) and CAPNS1_R3: 5′-[…]-[…]-3′ (SEQ ID NO: 60). Sequences specific to the locus are underlined. The sequence NNNN in primer F1 is a Barcode sequence (Tag) needed to link the sequence with a PCR product. The percentage of PCR fragments carrying insertion or deletion at the meganuclease cleavage site is related to the mutagenesis induced by the meganuclease through NHEJ pathway in a cell population, and therefore correlates with the meganuclease activity at its endogenous recognition site. 5000 to 10000 sequences were analyzed per conditions.
# [4] = test system: CAPNS1 target in human CAPNS1 gene, 293H cells; test: Meganuclease-induced mutagenesis assay at CAPNS1 recognition site; type: cell-based; conditions: CAPNS1 meganuclease
# Description: as §2, §3, §4
molecule,measurement,setting,value
"si_DNMT1: mixture of two siRNA DNMT1—1 (SEQ ID NO: 66) and DNMT1—2 (SEQ ID NO: 67) targeting DNMT1 gene (chain 1 ACGGTGCTCATGCTTACAACC; chain 2 CCCAATGAGACTGACATCAAA; mixture of two siRNAs, further chemistry not given here)","amount of unmethylated C, % of total",[1]; 1 nM,20%
same,"amount of unmethylated C, % of total",[1]; 5 nM,30%
same,amount of unmethylated C,[1]; 1 nM,25%
same,amount of unmethylated C,[1]; 5 nM,50%
same,"mutagenesis, PCR fragments carrying a mutation",[2]; Si_DNMT1 1 nM,0.022%
same,"mutagenesis, PCR fragments carrying a mutation",[2]; Si_DNMT1 5 nM,0.055%
same,mutagenesis,"[2]; empty vector, 1 or 5 nM of si_DNMT1",low or absent
B1,increase of C50,C1221 DNA target; C1221 with one methyl group on both strand vs unmethylated,about 3 folds
same,increase of C50,C1221 DNA target; C1221 with three methyl groups vs unmethylated,more than 10 folds
same,increase of C50,C1221 DNA target; C1221 with two methyl groups vs unmethylated,more than 10 folds
same,meganuclease concentration at which C1221 cleaved product leveled up,C1221 DNA target; unmethylated C1221,about 500 nM
same,EC50,"C1221 DNA target; unmethylated C1221, 1 hour at 37° C., read-out: C50 (concentration of meganuclease needed to cleave 50% of C1221)",100 to 150 nM
B2,"mutagenesis, PCR fragments carrying a mutation",[3]; 0 μM 5-aza-2′-deoxycytidine,0.76% ± 0.02
same,"mutagenesis, PCR fragments carrying a mutation","[3]; 0 μM 5-aza-2′-deoxycytidine, listed as RAG meganuclease",0.75%±0.02
same,"mutagenesis, PCR fragments carrying a mutation",[3]; 0.2 μM 5-aza-2′-deoxycytidine,0.71% ± 0.17
same,"mutagenesis, PCR fragments carrying a mutation","[3]; 0.2 μM 5-aza-2′-deoxycytidine, listed as RAG meganuclease",0.71%±0.17
same,"mutagenesis, PCR fragments carrying a mutation",[3]; 1 μM 5-aza-2′-deoxycytidine,0.59% ± 0.3
same,"mutagenesis, PCR fragments carrying a mutation","[3]; 1 μM 5-aza-2′-deoxycytidine, listed as RAG meganuclease",0.59%±0.31
B3,"mutagenesis, PCR fragments carrying a mutation",[4]; 0 μM 5-aza-2′-deoxycytidine,6.10% ± 0.43
same,"mutagenesis, PCR fragments carrying a mutation","[4]; 0 μM 5-aza-2′-deoxycytidine, listed as CAPNS1 meganuclease",6.1%±0.43
same,"mutagenesis, PCR fragments carrying a mutation",[4]; 0.2 μM 5-aza-2′-deoxycytidine,6.55% ± 0.77
same,"mutagenesis, PCR fragments carrying a mutation","[4]; 0.2 μM 5-aza-2′-deoxycytidine, listed as CAPNS1 meganuclease",6.55%±0.77
same,"mutagenesis, PCR fragments carrying a mutation",[4]; 1 μM 5-aza-2′-deoxycytidine,4.34% ± 0.95
same,"mutagenesis, PCR fragments carrying a mutation","[4]; 1 μM 5-aza-2′-deoxycytidine, listed as CAPNS1 meganuclease",4.34%±0.95
